The record followed here is patent US20180230233A1 (Genentech, published 2018).

B1: huE104.v9 IgG1 (chimeric heavy chain) (antibody, V domains shown)
VH: QSLEESGGGLFKPTDTLTLTCTVSRFSLIGYAITWVRQSPENGLEWIGGISSAATTFYSSWAKSRSTITRNTNENTVTLKMTSLTAADTATYFCARDPRGYGAALDRLDLWGQGTLVTVSS
VL: DIQMTQSPSSLSASVGDRVTITCQSIKSVYNNRLGWYQQKPGKAPKLLIYETSILTSGVPSRFSGSGSGTDFTLTISSLQPEDFATYYCAGGFDRSGDTTFGQGTKVEIK
notes: also called E104.v9 chimeric clone
B2: huE104.v6 IgG1 (antibody, V domains shown)
VH: EVQLVESGPGLVKPSETLSLTCTVSRFSLIGYAITWIRQPPGKGLEWIGGISSAATTFYSSWAKSRVTISRDTSKNQVSLKLSSVTAADTAVYYCARDPRGYGAALDRLDLWGQGTLVTVSS
VL: DAQLTQSPSSLSASVGDRVTITCQSIKSVYNNRLGWYQQKPGKPPKLLIYETSILTSGVPSRFSGSGSETDFTLTISSLQPEDFATYFCAGGFDRSGDTTFGQGTKVEIK
B3: huE104.v7 IgG1 (antibody, V domains shown)
VH: EVQLVESGPGLVKPSETLSLTCTVSRFSLIGYAITWVRQPPGKGLEWIGGISSAATTFYSSWAKSRSTISRDTSKNQVSLKLSSVTAADTAVYFCARDPRGYGAALDRLDLWGQGTLVTVSS
VL: DAQLTQSPSSLSASVGDRVTITCQSIKSVYNNRLGWYQQKPGKPPKLLIYETSILTSGVPSRFSGSGSETDFTLTISSLQPEDFATYFCAGGFDRSGDTTFGQGTKVEIK
B4: huE104.v5 IgG1 (antibody, V domains shown)
VH: EVQLVESGPGLVKPSETLSLTCTVSRFSLIGYAITWIRQPPGKGLEWIGGISSAATTFYSSWAKSRVTISVDTSKNQFSLKLSSVTAADTAVYYCARDPRGYGAALDRLDLWGQGTLVTVSS
VL: DAQLTQSPSSLSASVGDRVTITCQSIKSVYNNRLGWYQQKPGKPPKLLIYETSILTSGVPSRFSGSGSETDFTLTISSLQPEDFATYFCAGGFDRSGDTTFGQGTKVEIK
B5: huE104.v3 IgG1 (antibody, V domains shown)
VH: EVQLVESGPGLVKPSETLSLTCTVSRFSLIGYAITWVRQPPGKGLEWIGGISSAATTFYSSWAKSRSTISRDTSKNQVSLKLSSVTAADTAVYFCARDPRGYGAALDRLDLWGQGTLVTVSS
VL: DIQMTQSPSSLSASVGDRVTITCQSIKSVYNNRLGWYQQKPGKAPKLLIYETSILTSGVPSRFSGSGSGTDFTLTISSLQPEDFATYYCAGGFDRSGDTTFGQGTKVEIK
B6: hu31A.v14 IgG1 (antibody, V domains shown)
VH: EVQLVESGGGLVQPGGSLRLSCAASGFTFSDYGMVWVRQAPGKGLEWVAFISSGSSTVYYADTMKGRFTISRDNSKNTLYLQMNSLRAEDTAVVYCTRRDNYDWYFDVWGQGTLVTVSS
VL: DIQMTQSPSSLSASVGDRVTITCSASSSVTYMYWYQQKPGKSPKPWIYRTSDLASGVPSRFSGSGSGTDFTLTISSLQPEDFATYYCQHYHSYPLTFGQGTKVEIK
B7: hu31A.v6 IgG1 (antibody, V domains shown)
VH: EVQLVESGGGLVQPGGSLRLSCAASGFTFSDYGMVWVRQAPGKGLEWVAFISSGSSTVYYADTMKGRFTISRDNSKNTLYLQMNSLRAEDTAVVYCARRDNYDWYFDVWGQGTLVTVSS
VL: DIQLTQSPSSLSASVGDRVTITCSASSSVTYMYWYQQKPGKSPKPWIYRTSDLASGVPSRFSGSGSGTDYTLTISSLQPEDFATYYCQHYHSYPLTFGQGTKVEIK
notes: also called v6 (of hu31A)
B8: hu31A.v9 IgG1 (antibody, V domains shown)
VH: EVQLVESGGGLVQPGGSLRLSCAASGFTFSSFGMHWVRQAPGKGLEWVAFISSGSSTVYYADTMKGRFTISRDNSKNTLYLQMNSLRAEDTAVVYCARRDNYDWYFDVWGQGTLVTVSS
VL: DIQLTQSPSSLSASVGDRVTITCSASSSVTYMYWYQQKPGKSPKPWIYRTSDLASGVPSRFSGSGSGTDYTLTISSLQPEDFATYYCQHYHSYPLTFGQGTKVEIK
notes: also called v9 (of hu31A)
B9: hu31A.v12 IgG1 (antibody, V domains shown)
VH: EVQLVESGGGLVQPGGSLRLSCAASGFTFSDYGMVWVRQAPGKGLEWVAFISSGSSTVYYADTMKGRFTISRDNSKNTLYLQMNSLRAEDTAVYYCTRRNYDDWYFDVWGQGTLVTVSS
VL: DIQLTQSPSSLSASVGDRVTITCSASSSVTYMYWYQQKPGKSPKPWIYRTSDLASGVPSRFSGSGSGTDYTLTISSLQPEDFATYYCQHYHSYPLTFGQGTKVEIK
notes: also called v12 (of hu31A)
B10: hu31A.v10 IgG1 (antibody, V domains shown)
VH: EVQLVESGGGLVQPGGSLRLSCAASGFTFSDYGMVWVRQAPGKGLEWVAFISSGSSTVYYADTMKGRFTISRDNSKNTLYLQMNSLRAEDTAVYYCTRRNYDDWYFDVWGQGTLVTVSS
VL: DIQMTQSPSSLSASVGDRVTITCSASSSVTYMYWYQQKPGKAPKLLIYRTSDLASGVPSRFSGSGSGTDFTLTISSLQPEDFATYYCQHYHSYPLTFGQGTKVEIK
notes: also called v10 (of hu31A)
B11: hu31A.v1 IgG1 (antibody, V domains shown)
VH: EVQLVESGGGLVQPGGSLRLSCAASGFTFSDYGMVWVRQAPGKGLEWVGFISSGSSTVYYADTMKGRFTISRDNSKNTLYLQMNSLRAEDTAVVYCARRDNYDWYFDVWGQGTLVTVSS
VL: DIQMTQSPSSLSASVGDRVTITCSASSSVTYMYWYQQKPGKAPKLLIYRTSDLASGVPSRFSGSGSGTDFTLTISSLQPEDFATYYCQHYHSYPLTFGQGTKVEIK
notes: also called v1 (of hu31A)
B12: hu31A.v3 IgG1 (antibody, V domains shown)
VH: EVQLVESGGGLVQPGGSLRLSCAASGFTFSDYGMVWVRQAPGKGLEWVGFISSGSSTVYYADTMKGRFTISRDNSKNTLYLQMNSLRAEDTAVVYCARRDNYDWYFDVWGQGTLVTVSS
VL: DIQLTQSPSSLSASVGDRVTITCSASSSVTYMYWYQQKPGKSPKPWIYRTSDLASGVPSRFSGSGSGTDYTLTISSLQPEDFATYYCQHYHSYPLTFGQGTKVEIK
notes: also called v3 (of hu31A)
B13: hu31A.v8 IgG1 (antibody, V domains shown)
VH: EVQLVESGGGLVQPGGSLRLSCAASGFTFSSFGMHWVRQAPGKGLEWVAFISSGSSTVYYADTMKGRFTISRDNSKNTLYLQMNSLRAEDTAVVYCARRDNYDWYFDVWGQGTLVTVSS
VL: DIQMTQSPSSLSASVGDRVTITCSASSSVTYMYWYQQKPGKSPKPWIYRTSDLASGVPSRFSGSGSGTDFTLTISSLQPEDFATYYCQHYHSYPLTFGQGTKVEIK
notes: also called v8 (of hu31A)
B14: hu31A.v5 IgG1 (antibody, V domains shown)
VH: EVQLVESGGGLVQPGGSLRLSCAASGFTFSDYGMVWVRQAPGKGLEWVAFISSGSSTVYYADTMKGRFTISRDNSKNTLYLQMNSLRAEDTAVVYCARRDNYDWYFDVWGQGTLVTVSS
VL: DIQMTQSPSSLSASVGDRVTITCSASSSVTYMYWYQQKPGKSPKPWIYRTSDLASGVPSRFSGSGSGTDFTLTISSLQPEDFATYYCQHYHSYPLTFGQGTKVEIK
notes: also called v5 (of hu31A)
B15: hu31A.v2 IgG1 (antibody, V domains shown)
VH: EVQLVESGGGLVQPGGSLRLSCAASGFTFSDYGMVWVRQAPGKGLEWVGFISSGSSTVYYADTMKGRFTISRDNSKNTLYLQMNSLRAEDTAVVYCARRDNYDWYFDVWGQGTLVTVSS
VL: DIQMTQSPSSLSASVGDRVTITCSASSSVTYMYWYQQKPGKSPKPWIYRTSDLASGVPSRFSGSGSGTDFTLTISSLQPEDFATYYCQHYHSYPLTFGQGTKVEIK
notes: also called v2 (of hu31A)
B16: hu31A.v7 IgG1 (antibody, V domains shown)
VH: EVQLVESGGGLVQPGGSLRLSCAASGFTFSSFGMHWVRQAPGKGLEWVAFISSGSSTVYYADTMKGRFTISRDNSKNTLYLQMNSLRAEDTAVVYCARRDNYDWYFDVWGQGTLVTVSS
VL: DIQMTQSPSSLSASVGDRVTITCSASSSVTYMYWYQQKPGKAPKLLIYRTSDLASGVPSRFSGSGSGTDFTLTISSLQPEDFATYYCQHYHSYPLTFGQGTKVEIK
notes: also called v7 (of hu31A)
B17: hu31A.v4 IgG1 (antibody, V domains shown)
VH: EVQLVESGGGLVQPGGSLRLSCAASGFTFSDYGMVWVRQAPGKGLEWVAFISSGSSTVYYADTMKGRFTISRDNSKNTLYLQMNSLRAEDTAVVYCARRDNYDWYFDVWGQGTLVTVSS
VL: DIQMTQSPSSLSASVGDRVTITCSASSSVTYMYWYQQKPGKAPKLLIYRTSDLASGVPSRFSGSGSGTDFTLTISSLQPEDFATYYCQHYHSYPLTFGQGTKVEIK
notes: also called v4 (of hu31A)
B18: hu31A.v13 IgG1 (antibody, V domains shown)
VH: EVQLVESGGGLVQPGGSLRLSCAASGFTFSDYGMVWVRQAPGKGLEWVAFISSGSSTVYYADTMKGRFTISRDNSKNTLYLQMNSLRAEDTAVVYCTRRDNYDWYFDVWGQGTLVTVSS
VL: DIQMTQSPSSLSASVGDRVTITCSASSSVTYMYWYQQKPGKAPKLLIYRTSDLASGVPSRFSGSGSGTDFTLTISSLQPEDFATYYCQHYHSYPLTFGQGTKVEIK
B19: hu31A.v15 IgG1 (antibody, V domains shown)
VH: EVQLVESGGGLVQPGGSLRLSCAASGFTFSDYGMVWVRQAPGKGLEWVAFISSGSSTVYYADTMKGRFTISRDNSKNTLYLQMNSLRAEDTAVVYCTRRDNYDWYFDVWGQGTLVTVSS
VL: DIQLTQSPSSLSASVGDRVTITCSASSSVTYMYWYQQKPGKSPKPWIYRTSDLASGVPSRFSGSGSGTDYTLTISSLQPEDFATYYCQHYHSYPLTFGQGTKVEIK

T1 sequence (Q15661 other isoform, or with tags, fused parts or gaps): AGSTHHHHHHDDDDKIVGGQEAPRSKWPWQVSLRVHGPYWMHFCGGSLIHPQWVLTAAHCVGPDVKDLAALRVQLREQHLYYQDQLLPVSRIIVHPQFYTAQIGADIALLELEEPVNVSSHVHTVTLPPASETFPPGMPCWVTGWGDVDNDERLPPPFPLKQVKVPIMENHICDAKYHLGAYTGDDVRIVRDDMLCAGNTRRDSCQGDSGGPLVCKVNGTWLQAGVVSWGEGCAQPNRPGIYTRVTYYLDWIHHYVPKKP

The test addresses T1, recombinant His-tagged human tryptase beta 1 monomer (human, UniProt Q15661 31-275).
T1 construct: also called His6-tagged tryptase monomer; human tryptase b1 monomer
Kind of test: SPR (BIAcore T200); IgG1 captured by anti-human Fc, His-tagged monomer injected. On the procedure:
The assay can use a BIAcore® T200 or an equivalent device. Briefly, BIAcore® Series S CM5 sensor chips (or equivalent sensor chips) are immobilized with monoclonal mouse anti-human IgG (Fc) antibody and anti-tryptase antibodies are subsequently captured on the flow cell. Serial 3-fold dilutions of the human tryptase beta 1 monomer are injected at a flow rate of 30 μl/min. Each sample is analyzed with 3 min association and 10 min dissociation. The assay is performed at 25° C. After each injection, the chip is regenerated using 3 M MgCl₂. Binding response is corrected by subtracting the response units (RU) from a flow cell capturing an irrelevant IgG at similar density. A 1:1 Languir model of simultaneous fitting of kₒₙ and koff is used for kinetics analysis.
In this experiment, all the humanized variants were expressed as IgG by transient transfection of 293 cells. IgG was purified with protein G affinity chromatography. The affinity of each variant for recombinant His-tagged human tryptase beta 1 monomer (SEQ ID NO: 128) was determined by SPR analysis using a BIAcore® T200. BIAcore® Series S CM5 sensor chips were immobilized with monoclonal mouse anti-human IgG (Fc) antibody (Human antibody capture kit from GE Healthcare) and anti-tryptase variants were subsequently captured on each flow cell. Serial 3-fold dilutions of the human tryptase beta 1 monomer were injected at a flow rate of 30 μl/min. Each sample was analyzed with 3 min association and 10 min dissociation. After each injection, the chip was regenerated using 3 M MgCl₂. Binding response was corrected by subtracting the response units (RU) from a flow cell capturing an irrelevant IgG at similar density. A 1:1 Languir model of simultaneous fitting of kₒₙ and koff was used for kinetics analysis.
In general terms: SPR reads the build-up and loss of mass on a sensor chip optically.
Turning to B1, the equilibrium dissociation constant (Kd) (as a rule, the constant that tells how readily two partners part at equilibrium) is 0.24 nM.

B2: the equilibrium dissociation constant (Kd) worked out at 0.14 nM.

In the case of B3, the Kd stood at 0.25 nM.

Regarding B4, the equilibrium dissociation constant (Kd) was found to be 0.18 nM.

With B5, the dissociation constant Kd was found to be 0.21 nM.

Regarding B6, the Kd was found to be 1.34 nM.

On to B7, for which the Kd was 1.65 nM.

With B8, the dissociation constant Kd came to 0.94 nM.

Regarding B9, the Kd came out at 0.43 nM.

Regarding B10, the equilibrium dissociation constant (Kd) turned out to be 1.19 nM.

As for B11, the Kd worked out at 4.04 nM.

On to B12, for which the Kd amounted to 0.79 nM.

Regarding B13, the Kd came out at 0.94 nM.

In the case of B14, the Kd worked out at 1.68 nM.

Turning to B15, the Kd was determined as 0.74 nM.

As to B16, the equilibrium dissociation constant (Kd) worked out at 2.06 nM.

With B17, the Kd worked out at 11.8 nM.

Consider B18, for which the dissociation constant Kd was 9.65 nM.

B19: the dissociation constant Kd is 1.32 nM.
